From PMC9700037 come the findings set out here.

For assay [1], the target named is T1, Biotin-FLAG-NLRP1 wt (human), Q9C000.
T1 chain: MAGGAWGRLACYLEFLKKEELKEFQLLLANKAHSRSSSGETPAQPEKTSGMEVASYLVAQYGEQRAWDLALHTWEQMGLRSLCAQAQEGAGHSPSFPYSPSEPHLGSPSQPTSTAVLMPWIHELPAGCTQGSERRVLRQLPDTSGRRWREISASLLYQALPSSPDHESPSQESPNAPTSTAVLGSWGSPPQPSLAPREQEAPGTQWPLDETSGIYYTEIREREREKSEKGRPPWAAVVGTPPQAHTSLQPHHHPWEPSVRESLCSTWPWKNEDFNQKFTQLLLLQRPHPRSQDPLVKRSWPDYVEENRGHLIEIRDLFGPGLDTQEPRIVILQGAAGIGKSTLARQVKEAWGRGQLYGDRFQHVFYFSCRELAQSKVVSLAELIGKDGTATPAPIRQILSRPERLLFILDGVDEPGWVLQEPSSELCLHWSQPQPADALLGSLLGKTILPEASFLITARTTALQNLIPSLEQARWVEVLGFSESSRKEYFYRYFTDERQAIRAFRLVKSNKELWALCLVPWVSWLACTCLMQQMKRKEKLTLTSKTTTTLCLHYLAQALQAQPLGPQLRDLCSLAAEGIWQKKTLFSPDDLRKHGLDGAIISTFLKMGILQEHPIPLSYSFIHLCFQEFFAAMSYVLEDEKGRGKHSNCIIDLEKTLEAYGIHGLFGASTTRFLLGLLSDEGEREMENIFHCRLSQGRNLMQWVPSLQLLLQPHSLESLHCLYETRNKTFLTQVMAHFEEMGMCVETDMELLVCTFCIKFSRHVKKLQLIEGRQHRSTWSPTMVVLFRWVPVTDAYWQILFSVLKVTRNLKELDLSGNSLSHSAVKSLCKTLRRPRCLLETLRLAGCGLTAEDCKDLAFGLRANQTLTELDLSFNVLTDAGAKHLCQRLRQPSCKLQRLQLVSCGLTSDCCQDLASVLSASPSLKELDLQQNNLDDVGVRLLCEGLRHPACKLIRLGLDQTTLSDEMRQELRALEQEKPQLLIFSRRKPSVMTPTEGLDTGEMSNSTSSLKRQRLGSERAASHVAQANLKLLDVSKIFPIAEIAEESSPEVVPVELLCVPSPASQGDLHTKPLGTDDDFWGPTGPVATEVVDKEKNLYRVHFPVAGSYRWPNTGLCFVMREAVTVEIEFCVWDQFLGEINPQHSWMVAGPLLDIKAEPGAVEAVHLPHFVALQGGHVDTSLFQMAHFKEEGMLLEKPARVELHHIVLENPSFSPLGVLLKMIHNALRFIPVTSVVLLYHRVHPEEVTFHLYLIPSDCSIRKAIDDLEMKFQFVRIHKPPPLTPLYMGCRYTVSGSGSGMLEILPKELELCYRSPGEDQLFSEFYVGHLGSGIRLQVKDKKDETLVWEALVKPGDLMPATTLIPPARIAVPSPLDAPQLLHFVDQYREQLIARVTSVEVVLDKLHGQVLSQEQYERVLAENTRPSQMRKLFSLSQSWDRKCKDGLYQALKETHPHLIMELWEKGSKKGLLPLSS
Briefly: SPR; Biotin-FLAG-NLRP1 (from HEK293T) or biotin-MBP-NLRP1 (from Sf9, multimer fraction) or biotin-MBP immobilised on a streptavidin chip; DPP9 injected at 78-2500 nM, single-cycle kinetics, 10 mM Hepes pH 7.5, 150 mM NaCl, 0.5 mM TCEP, 0.05% Tween-20. The conditions noted are these: remark: other sources report otherwise. On the technique in general: SPR reads the build-up and loss of mass on a sensor chip optically.

For assay [2], the target named is T2, biotin-MBP-NLRP1 wt (Avi-MBP-tev-NLRP1) (human), Q9C000.
T2 chain: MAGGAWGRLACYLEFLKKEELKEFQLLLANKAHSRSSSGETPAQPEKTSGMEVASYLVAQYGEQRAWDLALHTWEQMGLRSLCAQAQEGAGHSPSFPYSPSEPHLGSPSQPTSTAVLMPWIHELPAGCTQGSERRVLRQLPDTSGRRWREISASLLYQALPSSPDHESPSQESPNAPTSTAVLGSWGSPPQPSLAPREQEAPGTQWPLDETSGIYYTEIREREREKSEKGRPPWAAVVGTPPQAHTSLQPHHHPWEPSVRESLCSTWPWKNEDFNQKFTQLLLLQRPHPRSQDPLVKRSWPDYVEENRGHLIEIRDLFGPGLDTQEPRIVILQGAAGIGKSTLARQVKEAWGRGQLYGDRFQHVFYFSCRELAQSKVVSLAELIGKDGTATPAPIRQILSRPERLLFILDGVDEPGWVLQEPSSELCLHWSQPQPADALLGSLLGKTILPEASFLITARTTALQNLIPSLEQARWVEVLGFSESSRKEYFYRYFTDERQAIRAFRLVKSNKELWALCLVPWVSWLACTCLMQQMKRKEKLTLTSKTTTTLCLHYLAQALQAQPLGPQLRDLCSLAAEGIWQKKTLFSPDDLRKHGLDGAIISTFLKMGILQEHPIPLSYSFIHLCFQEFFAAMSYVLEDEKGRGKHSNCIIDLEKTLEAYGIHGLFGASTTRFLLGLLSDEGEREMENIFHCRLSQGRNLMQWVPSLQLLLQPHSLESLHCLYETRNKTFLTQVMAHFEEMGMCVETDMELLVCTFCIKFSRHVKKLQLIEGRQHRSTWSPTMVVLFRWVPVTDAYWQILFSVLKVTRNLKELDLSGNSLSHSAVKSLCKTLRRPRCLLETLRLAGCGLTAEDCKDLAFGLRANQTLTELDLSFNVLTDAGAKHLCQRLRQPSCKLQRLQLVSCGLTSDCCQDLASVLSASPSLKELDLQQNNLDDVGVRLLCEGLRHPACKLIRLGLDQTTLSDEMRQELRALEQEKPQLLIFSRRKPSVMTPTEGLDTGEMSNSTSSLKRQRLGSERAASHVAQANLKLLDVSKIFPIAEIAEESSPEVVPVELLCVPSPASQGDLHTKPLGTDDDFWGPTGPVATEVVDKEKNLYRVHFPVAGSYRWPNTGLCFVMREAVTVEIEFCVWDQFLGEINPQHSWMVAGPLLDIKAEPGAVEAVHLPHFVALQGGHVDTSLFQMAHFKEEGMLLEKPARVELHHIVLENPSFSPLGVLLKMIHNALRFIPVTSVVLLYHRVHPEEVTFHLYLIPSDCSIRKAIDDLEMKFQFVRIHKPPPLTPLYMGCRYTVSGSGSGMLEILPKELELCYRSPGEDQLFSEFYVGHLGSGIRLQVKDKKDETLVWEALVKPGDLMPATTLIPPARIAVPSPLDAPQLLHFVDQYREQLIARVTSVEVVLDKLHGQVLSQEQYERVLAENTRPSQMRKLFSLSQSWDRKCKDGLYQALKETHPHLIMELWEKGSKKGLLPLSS
Described as above. The conditions noted are these: remark: other sources report otherwise.

Assay [3] concerns the target His6-tev-DPP9, Q86TI2. Put plainly: SEC-MALS; co-eluting SEC fractions of FIIND, DPP9 and free UPA co-expressed in Sf9 and co-purified; 0.5-1.0 mg/ml, Superose 6 increase (10/300) GL, buffer A without glycerol. Particulars: remark: other sources report otherwise.
The target of assay [4] is T2, biotin-MBP-NLRP1 wt (Avi-MBP-tev-NLRP1) …. Put plainly: SPR; 20-fold excess Val-boroPro (VbP); NLRP1 multimer. Particulars: enzyme; chains chain; biotin (on the Avi tag, BirA co-expressed); remark: other sources report otherwise.
Assay [5] addresses His6-tev-DPP9, Q86TI2. Briefly: SEC-MALS; co-eluting SEC fractions of FIIND and DPP9 co-expressed in Sf9 WITHOUT the free UPA construct, co-purified; 0.5-1.0 mg/ml, Superose 6 increase (10/300) GL, buffer A without glycerol. Particulars: remark: other sources report otherwise. In general terms: SEC sorts molecules by how far they enter the pores of the column.
Assay [6] addresses T2, biotin-MBP-NLRP1 wt (Avi-MBP-tev-NLRP1) …. Briefly: SPR; NLRP1 void (high MW) fraction. The conditions noted are these: enzyme; chains chain; biotin (on the Avi tag, BirA co-expressed); remark: other sources report otherwise.

B1: His6-tev-DPP9, Q86TI2 1-863 (protein)
chain: MATTGTPTADRGDAAATDDPAARFQVQKHSWDGLRSIIHGSRKYSGLIVNKAPHDFQFVQKTDESGPHSHRLYYLGMPYGSRENSLLYSEIPKKVRKEALLLLSWKQMLDHFQATPHHGVYSREEELLRERKRLGVFGITSYDFHSESGLFLFQASNSLFHCRDGGKNGFMVSPMKPLEIKTQCSGPRMDPKICPADPAFFSFINNSDLWVANIETGEERRLTFCHQGLSNVLDDPKSAGVATFVIQEEFDRFTGYWWCPTASWEGSEGLKTLRILYEEVDESEVEVIHVPSPALEERKTDSYRYPRTGSKNPKIALKLAEFQTDSQGKIVSTQEKELVQPFSSLFPKVEYIARAGWTRDGKYAWAMFLDRPQQWLQLVLLPPALFIPSTENEEQRLASARAVPRNVQPYVVYEEVTNVWINVHDIFYPFPQSEGEDELCFLRANECKTGFCHLYKVTAVLKSQGYDWSEPFSPGEDEFKCPIKEEIALTSGEWEVLARHGSKIWVNEETKLVYFQGTKDTPLEHHLYVVSYEAAGEIVRLTTPGFSHSCSMSQNFDMFVSHYSSVSTPPCVHVYKLSGPDDDPLHKQPRFWASMMEAASCPPDYVPPEIFHFHTRSDVRLYGMIYKPHALQPGKKHPTVLFVYGGPQVQLVNNSFKGIKYLRLNTLASLGYAVVVIDGRGSCQRGLRFEGALKNQMGQVEIEDQVEGLQFVAEKYGFIDLSRVAIHGWSYGGFLSLMGLIHKPQVFKVAIAGAPVTVWMAYDTGYTERYMDVPENNQHGYEAGSVALHVEKLPNEPNRLLILHGFLDENVHFFHTNFLVSQLIRAGKPYQLQIYPNERHSIRCPESGEHYEVTLLHFLQEYL
modifications: here or on the partner: biotin
For the molecule B1, the Kd in assay [1] worked out at 155 nM; in assay [2], 140 nM; in assay [4], 168 nM; in assay [6] it was 173 nM. Besides, the stoichiometry N with His6-tev-DPP9, Q86TI2 [3] is 2; in the assay with His6-tev-DPP9, Q86TI2 [5], 2.

The term Kd denotes a measure of binding affinity in units of concentration. For orientation: stoichiometry N means a count of units in the complex or per binding partner.
